According to the supplement of paper PMC10201428:
± gives the standard deviation of the averaged measurements.

B1: library; a variant is named by its letters at N, in order (parent)
chain: ACATTTGTTGATACAACCATAAAATGATAATTACACCCATAAATTGATAATTATCACACCCANNNNNNNNNNNNNNCTCTGATCATAGTCAGACCAACATTGCTACGACCCGTATTCGCACCGACAC

Columns and labels:
[1] = variants of: B1; experiment: relative integration efficiency (T-RL orientation) vs wild-type transposon end (log2 (normalized fold change)); transposon end mutated: right end (5 bp flank + 75 bp right end); higher = more efficient transposition; conditions: with VchCAST RNA-guided transposition machinery (E. coli BL21(DE3) host, lacZ target)
Procedure, shortened: (§1)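 Barcoded pools of 1549 left-end or 1849 right-end transposon variants were cloned into a pUC57 mini-transposon donor. Each pool was co-transformed with a T7-driven effector plasmid (CRISPR array, tniQ-cas8-cas7-cas6, tnsA-tnsB-tnsC) into E. coli BL21(DE3) and plated with 0.1 mM IPTG at 37°C for 18 h. Input plasmids and genomic integration junctions were PCR-amplified and Illumina-sequenced, with two biological output replicates and four wild-type barcodes as reference. Relative integration efficiency is output/input barcode abundance fold change, normalised to wild-type barcodes and log-transformed.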

[2] = variants of: B1; experiment: relative integration efficiency (T-LR orientation) vs wild-type transposon end (log2 (normalized fold change)); transposon end mutated: right end (5 bp flank + 75 bp right end); higher = more efficient transposition; conditions: with VchCAST RNA-guided transposition machinery (E. coli BL21(DE3) host, lacZ target)
Procedure, shortened: as §1

TAAATTTCTATTGC was tested, and the “relative integration efficiency (log2)” value [1] was -0.55 ± 0.13 and the “relative integration efficiency (log2)” value [2] was 2.4 ± 0.28.

For TATATTGATATTGC, the “relative integration efficiency (log2)” value [1] was 0.155 ± 0.039 and the “relative integration efficiency (log2)” value [2] was 0.337 ± 0.47.

With TAACTTGATATTGC the “relative integration efficiency (log2)” value [1] was 0.11 ± 0.027 and the “relative integration efficiency (log2)” value [2] was 0.325 ± 0.16.

In the case of TAAATTGCGCGTGC, the “relative integration efficiency (log2)” value [1] is reported as -0.618 ± 0.12 and the “relative integration efficiency (log2)” value [2] is reported as 1.7 ± 0.1.

With TAAATTTATATTGC the “relative integration efficiency (log2)” value [1] was -0.361 ± 0.18 and the “relative integration efficiency (log2)” value [2] was 1.7 ± 0.14.

In the case of ATTTAACTATAACG A30G, the “relative integration efficiency (log2)” value [1] is reported as -1.51 ± 0.13 and the “relative integration efficiency (log2)” value [2] is reported as 2.11 ± 0.26.

ATTTAACTATAACG A30C was tested, and the “relative integration efficiency (log2)” value [1] was -1.2 ± 0.42 and the “relative integration efficiency (log2)” value [2] was 2.682 ± 0.016.

In the case of ATTTAACTATAACG A30T, the “relative integration efficiency (log2)” value [1] is reported as 0.406 ± 0.54 and the “relative integration efficiency (log2)” value [2] is reported as 4.401 ± 0.043.

For ATTTAACTATAACG A43T, the “relative integration efficiency (log2)” value [1] was -0.99 ± 0.12 and the “relative integration efficiency (log2)” value [2] was 2.15 ± 0.11.

ATTTAACTATAACG A43C was tested, and the “relative integration efficiency (log2)” value [1] was -0.798 ± 0.095 and the “relative integration efficiency (log2)” value [2] was 2.4 ± 0.038.

ATTTAACTATAACG A43G was tested, and the “relative integration efficiency (log2)” value [1] was -0.724 ± 0.15 and the “relative integration efficiency (log2)” value [2] was 2.29 ± 0.09.

For ATTTAACTATAACG A35T, the “relative integration efficiency (log2)” value [1] was -1 ± 0.29 and the “relative integration efficiency (log2)” value [2] was 2.07 ± 0.25.

ATTTAACTATAACG A35C was tested, and the “relative integration efficiency (log2)” value [1] was -0.737 ± 0.15 and the “relative integration efficiency (log2)” value [2] was 2.11 ± 0.15.

In the case of TAAATTGATATTGC T80C, the “relative integration efficiency (log2)” value [1] is reported as -0.0687 ± 0.062 and the “relative integration efficiency (log2)” value [2] is reported as -0.0985 ± 0.41.

In the case of TAAATTGATATTGC T80A, the “relative integration efficiency (log2)” value [1] is reported as 0.0921 ± 0.03 and the “relative integration efficiency (log2)” value [2] is reported as 0.072 ± 0.48.

In the case of TAAATTGATATTGC T80G, the “relative integration efficiency (log2)” value [1] is reported as 0.183 ± 0.047 and the “relative integration efficiency (log2)” value [2] is reported as 0.0082 ± 0.15.

In the case of ATTTAACTATAACG A29C, the “relative integration efficiency (log2)” value [1] is reported as -1.83 ± 0.43 and the “relative integration efficiency (log2)” value [2] is reported as 1.8 ± 0.15.

ATTTAACTATAACG A29T was tested, and the “relative integration efficiency (log2)” value [1] was -1.09 ± 0.32 and the “relative integration efficiency (log2)” value [2] was 2.6 ± 0.24.

For TAAATTGATATTGC T52A, the “relative integration efficiency (log2)” value [1] was -0.149 ± 0.095 and the “relative integration efficiency (log2)” value [2] was 0.276 ± 0.4.

For TAAATTGATATTGC T52C, the “relative integration efficiency (log2)” value [1] was -0.34 ± 0.15 and the “relative integration efficiency (log2)” value [2] was -0.286 ± 0.39.

For TAAATTGATATTGC T52G, the “relative integration efficiency (log2)” value [1] was -0.506 ± 0.15 and the “relative integration efficiency (log2)” value [2] was -0.16 ± 0.37.

In the case of TACCGGGATATTGC, the “relative integration efficiency (log2)” value [1] is reported as -0.561 ± 0.028 and the “relative integration efficiency (log2)” value [2] is reported as 2.282 ± 0.0082.

In the case of GCCATTGATATTGC A62C, the “relative integration efficiency (log2)” value [1] is reported as -0.86 ± 0.27 and the “relative integration efficiency (log2)” value [2] is reported as 2.47 ± 0.15.

With TAGATTGATATTGC the “relative integration efficiency (log2)” value [1] was -0.557 ± 0.12 and the “relative integration efficiency (log2)” value [2] was 1.925 ± 0.0098.

In the case of GCCCTTGATATTGC, the “relative integration efficiency (log2)” value [1] is reported as -0.468 ± 0.1 and the “relative integration efficiency (log2)” value [2] is reported as 2.5 ± 0.11.

For TAAATTGTATATGC, the “relative integration efficiency (log2)” value [1] was -0.247 ± 0.1 and the “relative integration efficiency (log2)” value [2] was 0.948 ± 0.27.

ATTTAACTATAACG A47C was tested, and the “relative integration efficiency (log2)” value [1] was -0.686 ± 0.38 and the “relative integration efficiency (log2)” value [2] was 2.63 ± 0.064.

In the case of ATTTAACTATAACG A47T, the “relative integration efficiency (log2)” value [1] is reported as -1.17 ± 0.26 and the “relative integration efficiency (log2)” value [2] is reported as 1.84 ± 0.026.

For ATTTAACTATAACG A47G, the “relative integration efficiency (log2)” value [1] was -0.679 ± 0.11 and the “relative integration efficiency (log2)” value [2] was 2.25 ± 0.039.

In the case of TAAATTGATTTTGC, the “relative integration efficiency (log2)” value [1] is reported as -0.0591 ± 0.014 and the “relative integration efficiency (log2)” value [2] is reported as 0.338 ± 0.22.

In the case of TAAATTGTTATTGC, the “relative integration efficiency (log2)” value [1] is reported as -0.347 ± 0.057 and the “relative integration efficiency (log2)” value [2] is reported as 1.61 ± 0.16.

With TAAATTGATATTGG C77G the “relative integration efficiency (log2)” value [1] was -0.0309 ± 0.041 and the “relative integration efficiency (log2)” value [2] was -0.0151 ± 0.56.

For TATTTTGATATTGC, the “relative integration efficiency (log2)” value [1] was -0.123 ± 0.052 and the “relative integration efficiency (log2)” value [2] was 0.19 ± 0.27.

TAAATTGATATTGC T51C was tested, and the “relative integration efficiency (log2)” value [1] was 0.0252 ± 0.18 and the “relative integration efficiency (log2)” value [2] was 0.0609 ± 0.14.

With TAAATTGATATTGC T51A the “relative integration efficiency (log2)” value [1] was -0.455 ± 0.07 and the “relative integration efficiency (log2)” value [2] was -0.206 ± 0.1.

In the case of TAAATTGATATTGC T51G, the “relative integration efficiency (log2)” value [1] is reported as -0.507 ± 0.097 and the “relative integration efficiency (log2)” value [2] is reported as -0.118 ± 0.2.

With TAAATTGGTATTGC the “relative integration efficiency (log2)” value [1] was 0.0075 ± 0.082 and the “relative integration efficiency (log2)” value [2] was 0.963 ± 0.065.

ATTTAACTATAACG A42C was tested, and the “relative integration efficiency (log2)” value [1] was -1.82 ± 0.3 and the “relative integration efficiency (log2)” value [2] was 1.03 ± 0.13.

In the case of ATTTAACTATAACG A42T, the “relative integration efficiency (log2)” value [1] is reported as -0.805 ± 0.085 and the “relative integration efficiency (log2)” value [2] is reported as 2.24 ± 0.14.

ATTTAACTATAACG A42G was tested, and the “relative integration efficiency (log2)” value [1] was -1.62 ± 0.22 and the “relative integration efficiency (log2)” value [2] was 1.19 ± 0.16.

With ATAATTGATATTGC the “relative integration efficiency (log2)” value [1] was -0.135 ± 0.017 and the “relative integration efficiency (log2)” value [2] was 1.11 ± 0.1.

For TAAATTGATATTGG, the “relative integration efficiency (log2)” value [1] was 0.00187 ± 0.0011 and the “relative integration efficiency (log2)” value [2] was -0.155 ± 0.042.

For TAAATTGATATTGT, the “relative integration efficiency (log2)” value [1] was 0.127 ± 0.093 and the “relative integration efficiency (log2)” value [2] was 0.155 ± 0.13.

GCAATTGATATTGC was tested, and the “relative integration efficiency (log2)” value [1] was -0.508 ± 0.047 and the “relative integration efficiency (log2)” value [2] was 2.25 ± 0.12.

ATTTAACTATAACG A15C was tested, and the “relative integration efficiency (log2)” value [1] was -0.749 ± 0.29 and the “relative integration efficiency (log2)” value [2] was 2.73 ± 0.074.

With ATTTAACTATAACG A15T the “relative integration efficiency (log2)” value [1] was -1.1 ± 0.15 and the “relative integration efficiency (log2)” value [2] was 1.8 ± 0.077.

TAAATTGATGTTGC was tested, and the “relative integration efficiency (log2)” value [1] was -0.0405 ± 0.033 and the “relative integration efficiency (log2)” value [2] was 0.475 ± 0.053.

In the case of TCCATTGATATTGC, the “relative integration efficiency (log2)” value [1] is reported as -0.657 ± 0.14 and the “relative integration efficiency (log2)” value [2] is reported as 2.16 ± 0.029.

In the case of TATTAAGATATTGC, the “relative integration efficiency (log2)” value [1] is reported as -0.535 ± 0.084 and the “relative integration efficiency (log2)” value [2] is reported as 1.66 ± 0.11.

For TCCCGTGATATTGC, the “relative integration efficiency (log2)” value [1] was -0.648 ± 0.091 and the “relative integration efficiency (log2)” value [2] was 2.35 ± 0.13.

With ATTTAACTATAACG A13T the “relative integration efficiency (log2)” value [1] was -1.09 ± 0.14 and the “relative integration efficiency (log2)” value [2] was 1.84 ± 0.15.

With ATTTAACTATAACG A13C the “relative integration efficiency (log2)” value [1] was -0.7 ± 0.17 and the “relative integration efficiency (log2)” value [2] was 2.25 ± 0.23.

ATTTAACTATAACG A11C was tested, and the “relative integration efficiency (log2)” value [1] was -0.753 ± 0.07 and the “relative integration efficiency (log2)” value [2] was 1.51 ± 0.15.

For ATTTAACTATAACG A11T, the “relative integration efficiency (log2)” value [1] was -0.284 ± 0.19 and the “relative integration efficiency (log2)” value [2] was 2.19 ± 0.049.

With ATTTAACTATAACG A11G the “relative integration efficiency (log2)” value [1] was -0.569 ± 0.088 and the “relative integration efficiency (log2)” value [2] was 1.83 ± 0.095.

In the case of TACATTGATATTGC, the “relative integration efficiency (log2)” value [1] is reported as -0.674 ± 0.11 and the “relative integration efficiency (log2)” value [2] is reported as 1.79 ± 0.13.

TAACGTGATATTGC was tested, and the “relative integration efficiency (log2)” value [1] was -0.0871 ± 0.004 and the “relative integration efficiency (log2)” value [2] was 0.67 ± 0.2.

For TATATTGATATCTC C59A, the “relative integration efficiency (log2)” value [1] was -0.231 ± 0.072 and the “relative integration efficiency (log2)” value [2] was -0.123 ± 0.17.
